According to patent CN113135995A (SHANGHAI INST OF BIOLOGICAL PRODUCTS CO LTD, dated 2021):

Tests used:
[1] = target: T1, HER3胞外区重组蛋白 (recombinant HER3 extracellular domain protein, expressed in CHO cells) (human, UniProt P21860 20-643); test: ProteOn XPR36 SPR, ratio of KD values
T1 construct: also called HER3蛋白

[2] = target: T1, HER3胞外区重组蛋白 (recombinant HER3 …); test: ProteOn XPR36 SPR; antibody captured by goat anti-human IgG Fc on GLM chip, HER3 protein 0.625-10 nM as analyte
[3] = target: 细胞表面HER3分子 (HER3 on the surface of human tumour cells) (human, UniProt P21860 20-1342); test: cell-based or functional assay
[4] = target: T2, hGH标签的HER3胞外区蛋白 (hGH-tagged HER3 extracellular domain protein) (human, UniProt P21860 20-643); test: blocking ELISA: HRG coated, hGH-tagged HER3 ECD 1 ug/ml, antibody from 2 ug/ml in 1:3 steps, HRP anti-hGH detection
T2 construct: also called HER3分子; not shown: hGH tag
T2 sequence (P21860 20-643): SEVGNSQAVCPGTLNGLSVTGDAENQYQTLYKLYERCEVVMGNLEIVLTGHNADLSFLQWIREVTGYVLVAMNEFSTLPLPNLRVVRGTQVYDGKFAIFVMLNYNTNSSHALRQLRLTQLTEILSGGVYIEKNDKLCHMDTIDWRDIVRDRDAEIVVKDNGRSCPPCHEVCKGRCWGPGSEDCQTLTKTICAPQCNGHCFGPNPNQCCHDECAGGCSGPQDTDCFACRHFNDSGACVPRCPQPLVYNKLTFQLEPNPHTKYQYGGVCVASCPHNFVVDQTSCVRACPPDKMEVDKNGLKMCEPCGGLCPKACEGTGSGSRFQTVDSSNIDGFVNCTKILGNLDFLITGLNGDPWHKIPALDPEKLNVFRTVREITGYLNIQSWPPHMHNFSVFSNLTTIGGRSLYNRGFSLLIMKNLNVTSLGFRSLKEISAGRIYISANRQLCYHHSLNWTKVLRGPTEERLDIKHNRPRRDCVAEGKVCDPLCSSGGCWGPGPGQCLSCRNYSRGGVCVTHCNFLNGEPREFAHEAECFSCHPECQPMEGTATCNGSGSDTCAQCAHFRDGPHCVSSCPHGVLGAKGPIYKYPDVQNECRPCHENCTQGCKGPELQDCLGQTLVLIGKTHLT

T1 sequence (P21860 20-643 limits assumed): as the sequence (P21860 20-643) above
细胞表面HER3分子 (HER3 on the surface of human tumour cells), sequence (P21860 20-1342 limits assumed): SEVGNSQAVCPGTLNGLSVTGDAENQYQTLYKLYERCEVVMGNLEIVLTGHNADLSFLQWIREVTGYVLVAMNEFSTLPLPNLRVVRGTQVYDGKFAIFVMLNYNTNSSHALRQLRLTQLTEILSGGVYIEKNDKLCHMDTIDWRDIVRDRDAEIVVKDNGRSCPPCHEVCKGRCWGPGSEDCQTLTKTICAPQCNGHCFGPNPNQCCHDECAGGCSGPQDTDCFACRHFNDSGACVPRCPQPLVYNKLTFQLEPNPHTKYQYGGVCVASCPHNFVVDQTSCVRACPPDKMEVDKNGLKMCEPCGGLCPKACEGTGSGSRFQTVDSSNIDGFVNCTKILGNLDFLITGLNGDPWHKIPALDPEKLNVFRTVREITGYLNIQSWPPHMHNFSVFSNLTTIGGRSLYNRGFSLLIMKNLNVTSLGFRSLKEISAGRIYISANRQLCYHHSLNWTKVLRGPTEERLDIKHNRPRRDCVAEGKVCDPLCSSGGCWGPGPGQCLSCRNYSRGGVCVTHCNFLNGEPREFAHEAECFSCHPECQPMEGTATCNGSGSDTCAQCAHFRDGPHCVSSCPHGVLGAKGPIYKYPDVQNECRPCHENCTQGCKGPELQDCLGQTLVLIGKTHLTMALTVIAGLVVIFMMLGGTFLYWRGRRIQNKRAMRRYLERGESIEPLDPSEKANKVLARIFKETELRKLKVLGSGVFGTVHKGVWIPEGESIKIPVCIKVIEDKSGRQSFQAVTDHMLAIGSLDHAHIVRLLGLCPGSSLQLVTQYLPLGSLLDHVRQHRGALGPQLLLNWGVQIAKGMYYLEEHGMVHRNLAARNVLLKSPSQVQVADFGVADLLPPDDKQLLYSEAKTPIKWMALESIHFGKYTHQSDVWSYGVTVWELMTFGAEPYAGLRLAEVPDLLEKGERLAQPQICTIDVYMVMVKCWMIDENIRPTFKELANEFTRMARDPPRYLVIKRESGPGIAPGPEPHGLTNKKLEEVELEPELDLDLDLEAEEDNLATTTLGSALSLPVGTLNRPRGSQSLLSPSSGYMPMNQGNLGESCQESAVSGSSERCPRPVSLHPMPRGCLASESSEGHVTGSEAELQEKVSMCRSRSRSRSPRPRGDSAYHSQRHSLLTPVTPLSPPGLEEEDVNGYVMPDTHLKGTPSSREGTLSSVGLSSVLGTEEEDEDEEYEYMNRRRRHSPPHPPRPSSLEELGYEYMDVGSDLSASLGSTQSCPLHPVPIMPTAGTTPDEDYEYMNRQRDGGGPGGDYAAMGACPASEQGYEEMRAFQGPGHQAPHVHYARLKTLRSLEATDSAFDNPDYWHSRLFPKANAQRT

Binder | fold increase in affinity against hu1044 [1] | Kd [2] | HRG刺激的乳腺癌MCF-7细胞增殖 IC50 (CCK-8) [3] | fold increase in affinity against hu1044-7 [1] | IC50 [4]
hu1044Y抗体 (optimised humanized anti-HER3 antibody hu1044Y) (antibody, human IgG1, kappa, V domains shown, hu1044 with heavy chain position 27 changed from Gly to Tyr) VH: QVQLVQSGAEVKKPGSSVKVSCKASGYTFSNYWIDWVKQAPGQGLEWMGEILPGSGGTDYNEKFKGRVTITADTSTSTAYMELSSLRSEDTAVYYCARDDYDVFAYWGQGTLVTVSS VL: DIVMTQSPGTLSLSPGERATLSCRSSKSLLHSNGITYLYWYQQKPGQAPRLLIYQMSNLASGIPDRFSSSGSGTDFTLTISRLEPEDFAVYYCAQNLELPWTFGQGTKVEIKR | ~2 倍 (fold) | 0.232 nM | – | – | –
hu1044抗体 (humanized anti-HER3 monoclonal antibody hu1044) (antibody, V domains shown) VH: QVQLVQSGAEVKKPGSSVKVSCKASGGTFSNYWIDWVKQAPGQGLEWMGEILPGSGGTDYNEKFKGRVTITADTSTSTAYMELSSLRSEDTAVYYCARDDYDVFAYWGQGTLVTVSS VL: DIVMTQSPGTLSLSPGERATLSCRSSKSLLHSNGITYLYWYQQKPGQAPRLLIYQMSNLASGIPDRFSSSGSGTDFTLTISRLEPEDFAVYYCAQNLELPWTFGQGTKVEIKR | – | 0.442 nM | – | – | –

Further binders by falling Kd [2], results first:

fold increase in affinity against hu1044 [1] | Kd [2] | HRG刺激的乳腺癌MCF-7细胞增殖 IC50 (CCK-8) [3] | fold increase in affinity against hu1044-7 [1] | IC50 [4] | Binder
– | 0.375 nM | – | – | – | hu1044-7抗体 (humanized anti-HER3 antibody variant hu1044-7) (antibody, V domains shown) VH: QVQLVQSGAEVKKPGSSVKVSCKASGGTFSNYWIDWVRQAPGQGLEWMGEILPGSGGTDYNEKFKGKATITADTSTSTAYMELSSLRSEDTAVYYCARDDYDVFAYWGQGTLVTVSS VL: DIVMTQSPGTLSLSPGERATLSCRSSKSLLHSNGITYLYWYQQKPGQAPRLLIYQMSNLASGVPDRFSSSGSGTDFTLTISRLEPEDFAVYYCAQNLELPWTFGQGTKVEIKR
– | 0.117 nM | 13.3 ng/mL | ~3 倍 (fold) | ~0.1 µg/mL | hu1044-7Y抗体 (optimised humanized anti-HER3 antibody hu1044-7Y) (antibody, human IgG1, kappa, V domains shown, hu1044-7 with heavy chain position 27 changed from Gly to Tyr; In the flow cytometry assays it was labelled with Dylight 488 NHS ester) VH: QVQLVQSGAEVKKPGSSVKVSCKASGYTFSNYWIDWVRQAPGQGLEWMGEILPGSGGTDYNEKFKGKATITADTSTSTAYMELSSLRSEDTAVYYCARDDYDVFAYWGQGTLVTVSS VL: DIVMTQSPGTLSLSPGERATLSCRSSKSLLHSNGITYLYWYQQKPGQAPRLLIYQMSNLASGVPDRFSSSGSGTDFTLTISRLEPEDFAVYYCAQNLELPWTFGQGTKVEIKR
